Laboratory results published in patent US20190234935A1 (Janssen / Centocor, published 2019).

T1: Human GFRAL ECD-Fc (human GFRAL extracellular domain fused to human IgG1 Fc with 6xHis-tag) (human, UniProt Q6UXV0 19-351)
T1 construct: not shown: Human IgG1 Fc, any junction and the C-terminal 6xHis
T1 sequence: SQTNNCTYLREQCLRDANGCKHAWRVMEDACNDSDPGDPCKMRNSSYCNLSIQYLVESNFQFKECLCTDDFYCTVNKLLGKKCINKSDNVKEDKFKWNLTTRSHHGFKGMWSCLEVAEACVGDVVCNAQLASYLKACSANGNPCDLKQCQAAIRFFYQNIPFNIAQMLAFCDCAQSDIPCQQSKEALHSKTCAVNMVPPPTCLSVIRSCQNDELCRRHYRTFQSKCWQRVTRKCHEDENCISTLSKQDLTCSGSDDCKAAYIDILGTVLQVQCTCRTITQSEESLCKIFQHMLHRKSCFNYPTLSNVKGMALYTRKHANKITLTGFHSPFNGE

T2: GFRAL ECD-Fc (GFRAL extracellular domain, human IgG1 Fc, 6xHis-tag and Avi-tag) (human, UniProt Q6UXV0 19-351)
T2 construct: The recombinant signal peptide is left out; also called GFRAL extracellular domain (ECD)-Fc fusion; not shown: human IgG1 Fc; 6xHis-tag and Avi-tag at the C-terminus
T2 sequence: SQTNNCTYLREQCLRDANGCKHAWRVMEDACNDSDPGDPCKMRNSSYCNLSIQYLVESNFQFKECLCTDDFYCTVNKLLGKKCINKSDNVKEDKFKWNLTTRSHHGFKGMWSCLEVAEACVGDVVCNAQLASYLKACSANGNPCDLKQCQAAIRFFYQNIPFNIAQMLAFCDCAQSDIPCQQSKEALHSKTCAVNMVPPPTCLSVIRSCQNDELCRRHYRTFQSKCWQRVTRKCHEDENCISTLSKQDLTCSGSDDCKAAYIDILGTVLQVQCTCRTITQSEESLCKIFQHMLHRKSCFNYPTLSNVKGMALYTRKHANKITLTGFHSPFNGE


Assays:
[1] = molecular target: T3, cyno GFRAL ECD-Fc (cynomolgus monkey GFRAL extracellular domain fused to human IgG1 Fc with 6xHis-tag) (cynomolgus monkey); assay: SPR (ProteOn)
Experimental: Affinity measurements using Surface Plasmon Resonance (SPR) were performed using a ProteOn XPR36 system (Bio-Rad, Hercules, Calif.). A biosensor surface was prepared by coupling anti-Human IgG Fc (Jackson Immuno Research Labs, West Grove, Pa.) to the modified alginate polymer layer surface of a GLC chip (BioRad) using the manufacturer's instructions for amine-coupling chemistry. Approximately 5000 RU (response units) of mAbs were immobilized. The kinetic experiments were performed at 25° C. in running buffer (DPBS+0.01% P20+100 μg/ml BSA). To perform binding kinetic experiment of HSA-GDF15, GFRAL ECD-Fc or isotype control were captured followed by injections of ligands at 5 concentrations (in a 4-fold serial dilution). The association phase was monitored for 3 minutes at 50 μl/min, then followed by 15 minutes of buffer flow (dissociation phase). The chip surface was regenerated with two 18 second pulses of 100 mM H3PO4 (Sigma, St. Louis, Mo.) at 100 μL/min. The collected data were processed using ProteOn Manager software. First, the data was corrected for background using inter-spots. Then, double reference subtraction of the data was performed by using the buffer injection for analyte injections. The kinetic analysis of the data was performed using a Langmuir 1:1 binding model. […]

[2] = molecular target: T3, cyno GFRAL ECD-Fc (cynomolgus monkey …); assay: SPR (ProteOn), GFRAL ECD-Fc captured by anti-human IgG Fc
Experimental: (§1) Affinity measurements using Surface Plasmon Resonance (SPR) were performed using a ProteOn XPR36 system (Bio-Rad, Hercules, Calif.). A biosensor surface was prepared by coupling anti-Human IgG Fc (Jackson Immuno Research Labs, West Grove, Pa.) to the modified alginate polymer layer surface of a GLC chip (BioRad) using the manufacturer's instructions for amine-coupling chemistry. Approximately 5000 RU (response units) of mAbs were immobilized. The kinetic experiments were performed at 25° C. in running buffer (DPBS+0.01% P20+100 μg/ml BSA). To perform binding kinetic experiment of HSA-GDF15, GFRAL ECD-Fc or isotype control were captured followed by injections of ligands at 5 concentrations (in a 4-fold serial dilution). The association phase was monitored for 3 minutes at 50 μl/min, then followed by 15 minutes of buffer flow (dissociation phase). The chip surface was regenerated with two 18 second pulses of 100 mM H3PO4 (Sigma, St. Louis, Mo.) at 100 μL/min. The collected data were processed using ProteOn Manager software. First, the data was corrected for background using inter-spots. Then, double reference subtraction of the data was performed by using the buffer injection for analyte injections. The kinetic analysis of the data was performed using a Langmuir 1:1 binding model. The result was reported in the format of ka (On-rate), kd (Off-rate) and KD (equilibrium dissociation constant).

[3] = molecular target: T1, Human GFRAL ECD-Fc (human GFRAL …); assay: as above
Experimental: as §1

[4] = molecular target: T2, GFRAL ECD-Fc (GFRAL extracellular …); assay: SPR

Row | fold difference in binding affinity against human GFRAL [1] | Kd [2] | koff [2] | kon [2] | Kd [3] | koff [3] | kon [3] | Kd [4] | koff [4] | kon [4] | Binder
1 | ≤ 2 fold | 0.157 nM | 0.000291 s⁻¹ | 1.86e+06 M⁻¹ s⁻¹ | 0.0861 nM | 0.000156 s⁻¹ | 1.81e+06 M⁻¹ s⁻¹ |  |  |  | HSA-GDF15 (Example 7; linker SEQ ID NO:26) (ligand, not shown: large carriers; small tags and cut ends, Disulfide-linked homodimer through GDF15; one protomer is given., No His tag is told of for this construct; purified on HSA CaptureSelect resin) ARNGDHCPLGPGRCCRLHTVRASLEDLGWADWVLSPREVQVTMCIGACPSQFRAANMHAQIKTSLHRLKPDTVPAPCCVPASYNPMVLIQKTDTGVSLQTYDDLLAKDCHCI
2 |  |  |  |  |  |  |  | 0.0196 nM | 0.000197 s⁻¹ | 1.01e+07 M⁻¹ s⁻¹ | FlagTag-GDF15, homodimer (ligand, it is counted on the native full length protein; also called non-fusion GDF15; mature GDF15 homodimer) EFDYKDDDDKARNGDHCPLGPGRCCRLHTVRASLEDLGWADWVLSPREVQVTMCIGACPSQFRAANMHAQIKTSLHRLKPDTVPAPCCVPASYNPMVLIQKTDTGVSLQTYDDLLAKDCHCI
